These results are taken from patent US20040086947A1.

No end group written: not given here.

Substrate in assay [1]: FPB antiserum (rabbit polyclonal antiserum to human fibrinopeptide B, R4097, bleed I3)
As to the kind of experiment: competitive ELISA; synthetic FPB in solution against FPB antiserum binding to FPB-coated wells.

Substrate in assay [2]: FPB antiserum (rabbit polyclonal antiserum to human fibrinopeptide B, R4097, bleed I3)
Description: competitive ELISA; des-arg FPB in solution against FPB antiserum binding to FPB-coated wells. In general terms: ELISA stands for enzyme-linked immunosorbent assay.

Substrate in assay [3]: FPB antiserum (rabbit polyclonal antiserum to human fibrinopeptide B, R4097, bleed I3)
Description: competitive ELISA; reference synthetic FPB.

Usually IC50 stands for the concentration at which inhibition is half-maximal. On to QGVNDNEEGFFSAR (also: N-terminal Gln or pyroglutamic acid not given here) [synthetic human fibrinopeptide B (FPB)], for which the IC50 in assay [1] was determined as 6.7 nM.
As to QGVNDNEEGFFSA (also: N-terminal Gln or pyroglutamic acid not given here) [synthetic des-arginine fibrinopeptide B (des-arg FPB)], the IC50 in assay [2] amounted to 8.9 nM. Further, in assay [3], the cross-reactivity (IC50 of FPB divided by IC50 of des-arg FPB times 100) came out at 75%.
